Biological target: T1, CDTb protoxin (proCDTb), CDTb residues 43 to 876 (Clostridioides difficile, UniProt O32739 43-876)
T1 chain: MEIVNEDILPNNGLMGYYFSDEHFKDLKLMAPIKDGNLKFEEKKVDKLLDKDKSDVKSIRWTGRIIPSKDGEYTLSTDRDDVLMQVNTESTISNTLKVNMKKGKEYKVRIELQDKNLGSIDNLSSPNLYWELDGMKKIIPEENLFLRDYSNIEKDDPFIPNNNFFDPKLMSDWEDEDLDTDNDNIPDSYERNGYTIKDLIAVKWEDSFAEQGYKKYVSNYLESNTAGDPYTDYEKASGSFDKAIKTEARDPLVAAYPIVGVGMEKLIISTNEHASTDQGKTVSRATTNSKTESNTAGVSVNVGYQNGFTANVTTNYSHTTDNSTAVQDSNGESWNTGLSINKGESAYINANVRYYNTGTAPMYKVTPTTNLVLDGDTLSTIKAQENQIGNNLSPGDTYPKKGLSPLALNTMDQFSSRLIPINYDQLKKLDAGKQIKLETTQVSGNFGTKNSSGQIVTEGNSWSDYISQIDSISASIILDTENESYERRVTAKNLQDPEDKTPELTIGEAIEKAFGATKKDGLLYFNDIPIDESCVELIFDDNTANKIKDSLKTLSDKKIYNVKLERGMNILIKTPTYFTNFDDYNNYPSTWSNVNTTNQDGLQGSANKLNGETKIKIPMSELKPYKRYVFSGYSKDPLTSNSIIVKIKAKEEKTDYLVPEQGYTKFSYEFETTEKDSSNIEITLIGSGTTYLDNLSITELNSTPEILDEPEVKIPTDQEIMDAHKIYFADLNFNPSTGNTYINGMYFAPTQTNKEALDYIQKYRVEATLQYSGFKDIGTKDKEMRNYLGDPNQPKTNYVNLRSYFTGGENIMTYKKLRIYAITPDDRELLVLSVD
Experiment: SPR

B1: BINTOXB/9 Fab (Fab, V domains shown)
VH: QVQLQQSGAELARPGASVKMSCKASGYTFTSYTMHWVKQRPGQGLEWIGYINPSNDYTSYNQKFKDKATLTADKSSSTAYMQLSSLTSEDSAVYYCARCWGYDPYYFDYWGQGTTLTVSS
VL: DIVMSQSPSLLAVSAGEKVTMSCKSSQSLLNSRTRKNYLAWYQQKPGQSPKVLIYWASTRESGVPDRFTGSGSGTDFTLTISSVQAEDLAVYYCKQSYNLLTFGAGTKLELK
Work on B1 yielded a koff of 0.000227 s⁻¹.

B2: BINTOXB/22 Fab (Fab, V domains shown)
VH: QIQLVQSGPELKKPGETVKISCKASGYTFTNYGMNWVKQAPGKDLKWMGWMSTYTGEPTYADDFKGRFAFSLETSASTAYLQINNLKNEDMATYFCARRGNYLSFDYWGQGTTLTVSS
VL: DIVMTQSHKFMSTSVGDRVSITCKASQDVSTAVGWYQQKPGQSPKLLIYSASYRYTGVPDRFTGSGSGTDFTFTISSVQAEDLAVYYCQQHYSPPFTFGSGTELEIK
B2 showed a koff of 0.00299 s⁻¹.

Reference: publication PMC10127577 (2023)
